Experimental data taken from publication PMC9482650, “Quantitative fragmentomics allow affinity mapping of interactomes” (Nature Communications, 2022).
Blank lines part the entries; values can stand above or below the binder they belong to.

Key:
Assay in all cases: holdup assay
Parameters in all cases: key: below the threshold = too weak to quantify, mostly under pKd 3.1 to 4
[1] = target: T1, APBA2_1, Q99767
T1 sequence (Q99767 563-664, limits assumed, looked up): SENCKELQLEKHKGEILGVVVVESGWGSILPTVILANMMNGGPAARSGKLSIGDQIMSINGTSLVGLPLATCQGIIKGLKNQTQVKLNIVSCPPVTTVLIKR

[2] = target: T2, PDZD2_2, O15018
T2 sequence (O15018 329-429, limits assumed, looked up): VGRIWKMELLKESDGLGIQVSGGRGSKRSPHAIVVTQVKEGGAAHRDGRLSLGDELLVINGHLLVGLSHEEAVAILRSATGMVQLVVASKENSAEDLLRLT

[3] = target: LAP2, Q96RT1
Sequence of LAP2, Q96RT1 (Q96RT1 other isoform, or with tags, fused parts or gaps): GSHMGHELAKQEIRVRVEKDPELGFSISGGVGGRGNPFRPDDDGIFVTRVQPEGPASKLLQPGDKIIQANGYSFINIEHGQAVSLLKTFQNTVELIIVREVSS

[4] = target: DLG5_1, Q8TDM6
Sequence of DLG5_1, Q8TDM6 (Q8TDM6 617-713): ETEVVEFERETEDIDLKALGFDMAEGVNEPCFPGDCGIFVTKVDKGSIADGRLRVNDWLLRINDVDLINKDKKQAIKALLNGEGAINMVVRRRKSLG

[5] = target: DLG2_3, Q15700
[6] = target: AHNAK1, Q09666
Sequence of AHNAK1, Q09666 (Q09666 4-100): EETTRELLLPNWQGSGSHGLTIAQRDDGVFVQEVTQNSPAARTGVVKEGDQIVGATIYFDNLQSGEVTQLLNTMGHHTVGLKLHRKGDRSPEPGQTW

[7] = target: T3, MPP6, Q9NZW5
T3 sequence (Q9NZW5 125-219, limits assumed, looked up): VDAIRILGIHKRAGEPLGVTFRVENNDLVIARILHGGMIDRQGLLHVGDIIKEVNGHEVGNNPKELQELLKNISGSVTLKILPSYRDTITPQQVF

[8] = target: FRMPD2_1, Q68DX3
Sequence of FRMPD2_1, Q68DX3 (Q68DX3 770-861): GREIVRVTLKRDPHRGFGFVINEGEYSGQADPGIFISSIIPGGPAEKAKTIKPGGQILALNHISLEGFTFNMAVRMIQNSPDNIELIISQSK

[9] = target: T4, DLG3_1, Q92796
T4 sequence (Q92796 125-227, limits assumed, looked up): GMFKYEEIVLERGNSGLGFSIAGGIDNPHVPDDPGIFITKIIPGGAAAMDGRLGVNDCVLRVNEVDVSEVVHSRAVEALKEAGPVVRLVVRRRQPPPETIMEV

[10] = target: T5, PTPN13_1, Q12923
T5 sequence (Q12923 1088-1188, limits assumed, looked up): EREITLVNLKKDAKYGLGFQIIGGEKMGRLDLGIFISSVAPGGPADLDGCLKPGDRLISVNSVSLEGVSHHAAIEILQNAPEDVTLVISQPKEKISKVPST

[11] = target: PARD3_3, Q8TEW0
Sequence of PARD3_3, Q8TEW0 (Q8TEW0 582-685): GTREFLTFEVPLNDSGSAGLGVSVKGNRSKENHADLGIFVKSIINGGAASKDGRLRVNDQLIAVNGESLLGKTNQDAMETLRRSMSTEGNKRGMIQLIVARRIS

[12] = target: FRMPD2_3, Q68DX3
Sequence of FRMPD2_3, Q68DX3 (Q68DX3 1073-1166): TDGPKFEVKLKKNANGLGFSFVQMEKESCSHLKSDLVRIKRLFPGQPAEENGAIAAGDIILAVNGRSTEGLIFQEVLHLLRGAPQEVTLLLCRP

[13] = target: SNX27, Q96L92
[14] = target: GRIP2_6, Q9C0E4
Sequence of GRIP2_6, Q9C0E4 (Q9C0E4 648-740): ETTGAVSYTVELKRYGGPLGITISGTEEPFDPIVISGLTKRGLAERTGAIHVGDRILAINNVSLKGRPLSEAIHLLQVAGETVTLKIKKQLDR

[15] = target: T6, LRRC7, Q96NW7
T6 sequence (Q96NW7 1440-1537, limits assumed, looked up): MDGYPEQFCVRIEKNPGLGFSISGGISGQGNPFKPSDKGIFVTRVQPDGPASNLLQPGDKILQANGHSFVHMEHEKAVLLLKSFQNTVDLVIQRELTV

[16] = target: T7, ARHGEF11, O15085
T7 sequence (O15085 42-136, limits assumed, looked up): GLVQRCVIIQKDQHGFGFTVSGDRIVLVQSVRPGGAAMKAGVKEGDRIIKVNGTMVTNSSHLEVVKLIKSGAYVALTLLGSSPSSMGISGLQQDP

[17] = target: T8, DVL3, Q92997
T8 sequence (Q92997 244-331, limits assumed, looked up): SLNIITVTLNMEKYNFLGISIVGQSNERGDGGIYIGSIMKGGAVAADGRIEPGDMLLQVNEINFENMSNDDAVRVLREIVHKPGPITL

[18] = target: IL16_4, Q14005
Sequence of IL16_4, Q14005 (Q14005 1229-1329): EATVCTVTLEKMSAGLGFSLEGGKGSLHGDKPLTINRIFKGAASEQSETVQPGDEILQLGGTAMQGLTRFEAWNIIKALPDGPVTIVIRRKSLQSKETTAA

[19] = target: HTRA2, O43464
Sequence of HTRA2, O43464 (O43464 355-458): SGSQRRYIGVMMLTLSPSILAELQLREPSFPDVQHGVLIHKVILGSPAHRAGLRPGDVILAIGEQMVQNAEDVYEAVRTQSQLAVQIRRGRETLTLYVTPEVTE

[20] = target: T9, MPP7, Q5T2T1
T9 sequence (Q5T2T1 134-230, limits assumed, looked up): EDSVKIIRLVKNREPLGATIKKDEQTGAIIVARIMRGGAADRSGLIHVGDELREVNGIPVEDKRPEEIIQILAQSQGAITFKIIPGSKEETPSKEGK

[21] = target: T10, RAPGEF6, Q8TEU7
T10 sequence (Q8TEU7 525-625, limits assumed, looked up): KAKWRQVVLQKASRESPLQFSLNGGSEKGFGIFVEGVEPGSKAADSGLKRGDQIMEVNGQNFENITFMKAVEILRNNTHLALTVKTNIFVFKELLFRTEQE

[22] = target: T11, SNTB1, Q13884
T11 sequence (Q13884 107-205, limits assumed, looked up): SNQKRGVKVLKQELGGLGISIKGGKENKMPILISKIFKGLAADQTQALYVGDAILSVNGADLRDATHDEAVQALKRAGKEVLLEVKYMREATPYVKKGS

[23] = target: T12, SNTA1, Q13424
T12 sequence (Q13424 82-180, limits assumed, looked up): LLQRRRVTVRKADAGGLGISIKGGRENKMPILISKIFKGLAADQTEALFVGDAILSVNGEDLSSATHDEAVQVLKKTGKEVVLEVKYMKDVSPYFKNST

[24] = target: MAGI2_6, Q86UL8
Sequence of MAGI2_6, Q86UL8 (Q86UL8 1141-1229): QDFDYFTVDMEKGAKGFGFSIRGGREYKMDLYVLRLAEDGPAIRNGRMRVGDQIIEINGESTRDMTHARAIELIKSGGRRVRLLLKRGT

[25] = target: T13, APBA3_1, O96018
T13 sequence (O96018 389-490, limits assumed, looked up): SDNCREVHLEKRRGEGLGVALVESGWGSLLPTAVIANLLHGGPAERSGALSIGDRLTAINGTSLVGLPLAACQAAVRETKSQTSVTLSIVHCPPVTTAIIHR

[26] = plain residues with an end cap or a label only (N-terminal biotin on a linker: ahx)
[27] = plain residues with an end cap or a label only (N-terminal biotin on a linker: ttds)
[28] = plain residues with an end cap or a label only (N-terminal biotin on a linker: ado-ado)

pKd [1, 26]: below the threshold | pKd [2, 26]: 4.43 | pKd [3, 26]: 4.87 | pKd [4, 26]: below the threshold | pKd [5, 26]: 4.67 | pKd [6, 26]: below the threshold | pKd [7, 26]: below the threshold | pKd [8, 26]: below the threshold | pKd [9, 26]: 3.82 | pKd [10, 26]: below the threshold | pKd [11, 26]: below the threshold | pKd [12, 26]: below the threshold | pKd [13, 26]: 5.52 | pKd [14, 26]: below the threshold | pKd [15, 26]: 4.14 | pKd [16, 26]: 4.59 | pKd [17, 26]: below the threshold | pKd [18, 26]: below the threshold | pKd [19, 26]: below the threshold | pKd [20, 26]: below the threshold | pKd [21, 26]: below the threshold | pKd [22, 26]: 4.05 | pKd [23, 26]: 3.64 | pKd [24, 26]: 4.85 | pKd [25, 26]: below the threshold
Binder: HSGSYLVTSV [APC, P25054]

pKd [1, 27]: below the threshold | pKd [2, 27]: 3.37 | pKd [3, 27]: 4.02 | pKd [4, 27]: below the threshold | pKd [5, 27]: 4.17 | pKd [6, 27]: 3.33 | pKd [7, 27]: 3.45 | pKd [8, 27]: 3.37 | pKd [9, 27]: 3.34 | pKd [10, 27]: 3.36 | pKd [11, 27]: 3.76 | pKd [12, 27]: below the threshold | pKd [13, 27]: 5.11 | pKd [14, 27]: 3.22 | pKd [15, 27]: 4.04 | pKd [16, 27]: 4.83 | pKd [17, 27]: 3.3 | pKd [18, 27]: 3.21 | pKd [19, 27]: 3.91 | pKd [20, 27]: 3.25 | pKd [21, 27]: 3.49 | pKd [22, 27]: 4.07 | pKd [23, 27]: 3.88 | pKd [24, 27]: 4.11 | pKd [25, 27]: below the threshold
Binder: HRTCYLVTQL [ASIC3, Q9UHC3]

pKd [1, 28]: below the threshold | pKd [2, 28]: 3.76 | pKd [3, 28]: below the threshold | pKd [4, 28]: below the threshold | pKd [5, 28]: 4.54 | pKd [6, 28]: below the threshold | pKd [7, 28]: below the threshold | pKd [8, 28]: below the threshold | pKd [9, 28]: 3.58 | pKd [10, 28]: 3.71 | pKd [11, 28]: below the threshold | pKd [12, 28]: below the threshold | pKd [13, 28]: below the threshold | pKd [14, 28]: below the threshold | pKd [15, 28]: below the threshold | pKd [16, 28]: below the threshold | pKd [17, 28]: below the threshold | pKd [18, 28]: below the threshold | pKd [19, 28]: below the threshold | pKd [20, 28]: below the threshold | pKd [21, 28]: below the threshold | pKd [22, 28]: 4.51 | pKd [23, 28]: 4.2 | pKd [24, 28]: 3.78 | pKd [25, 28]: below the threshold
Binder: RGGFGRQTQI [NCBP2L, A6PVI3]
